Measured values published in patent US20240059769A1 (BIOLOJIC DESIGN, published 2024).
Read-outs that look alike come from different tables or passages of the source.

What was measured:
[1] = target: T1, hTSLP-His (human, UniProt Q969D9 29-159, limits assumed); assay: competition ELISA, 7 nM TSLP-His pre-incubated with antibody; competitor Tezepelumab coated
T1 construct: bought; also called hTSLP (ACROBiosystems TSP-H52Hb); not shown: His tag

[2] = target: T2, recombinant human IL-13 (human, UniProt P35225 35-146); assay: cell-based or functional assay
[3] = target: T2, recombinant human IL-13; assay: cell-based or functional assay; remark: listed apart in the source
[4] = target: T3, human TSLP (human, UniProt Q969D9 29-159); assay: SPR
T3 construct: also called hTSLP; rhTSLP

[5] = target: T2, recombinant human IL-13; assay: SPR
[6] = target: T1, hTSLP-His; assay: cell-based or functional assay
[7] = target: T4, cynomolgus monkey (cyno) TSLP (cynomolgus monkey, UniProt A0A7N9CAT7 29-159); assay: SPR
T4 construct: also called cTSLP; cynomolgus TSLP

[8] = target: T5, recombinant cynomolgus monkey IL-13 (cynomolgus monkey, UniProt Q0PW92 21-132); assay: SPR
T5 construct: bought; also called rc-IL-13; cIL-13

[9] = target: T3, human TSLP; assay: SPR; remark: listed apart in the source
[10] = target: T2, recombinant human IL-13; assay: SPR; remark: listed apart in the source

T5 sequence (Q0PW92 entry or part of it): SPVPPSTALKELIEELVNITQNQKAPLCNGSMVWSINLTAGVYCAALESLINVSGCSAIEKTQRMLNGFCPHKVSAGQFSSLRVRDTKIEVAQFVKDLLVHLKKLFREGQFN
T4 sequence (A0A7N9CAT7 entry or part of it): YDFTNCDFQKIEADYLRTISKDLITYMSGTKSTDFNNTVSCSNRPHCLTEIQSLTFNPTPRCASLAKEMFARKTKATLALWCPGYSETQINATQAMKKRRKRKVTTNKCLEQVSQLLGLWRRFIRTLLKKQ
T2 sequence (P35225 35-146 limits assumed): as the sequence (Q0PW92 entry or part of it) above, with S1G, K10R, V42M, N67S, R83H, V100L counted along it

IC50 [1] [pM]	IC50 CD23 [2] [pM]	HEK-IL-13 [nM] (IC50, STAT6 reporter) [3]	Kd [4] [pM]	koff [4] [s⁻¹]	kon [4] [M⁻¹ s⁻¹]	Kd [5] [pM]	IC50 [pM], STAT5 phosphorylation inhibition in MUTZ5 cells [6] [pM]	Kd [7] [pM]	koff [7] [s⁻¹]	kon [7] [M⁻¹ s⁻¹]	Kd [8] [pM]	koff [8] [s⁻¹]	kon [8] [M⁻¹ s⁻¹]	Kd [9] [pM]	koff [9] [s⁻¹]	kon [9] [M⁻¹ s⁻¹]	Kd [10] [pM]	koff [10] [s⁻¹]	kon [10] [M⁻¹ s⁻¹]	other results	Binder
10100	162	0.0113	52.5	0.000257	4.9e+06	34.6	–	–	–	–	–	–	–	–	–	–	–	–	–	koff [5]: 0.000205 s⁻¹; kon [5]: 5.93e+06 M⁻¹ s⁻¹	BDG38.106 (antibody, V domains shown, IgG1) VH: QMQLVESGGGVVQPGRSLTLSCAASGFEFRTYGMHWVRQAPGKGLEWVAVIWDDGSNTVYADSVKGRFTITRDNSKNTLNLQMNSLRVEDTAVYYCVRAPQWYLTAEAFDLWGQGTMVTVSS VL: SYILTQPPSVSVAPGQTATITCGGNLIGSRLVHWYQQKPGQAPVLVIYDDSDRPSRIPERFSGSNIGNTATLTIEDVEEGDEADYYCQVWDHYSDHMVFGGGTKLTVL
6140	121	0.0801	3.82	2.7e-05	7.07e+06	14.9	0.363	8.9	0.000452	5.08e+07	36.7	0.00144	3.94e+07	–	–	–	–	–	–	koff [5]: 0.000103 s⁻¹; kon [5]: 6.94e+06 M⁻¹ s⁻¹	BDG38.117 (antibody, V domains shown, IgG1) VH: QMQLVESGGGVVQPGRSLTLSCAASGFEFRTYGMHWVRQAPGKGLEWVGVIWDDGSNTHYADSVKGRFTITRDNSKNTLNLQMNSLRAEDTAVYYCARAPQWYLTAEAFDLWGQGTMVTVSS VL: SYVLTQPPSVSVAPGETATITCGGNLIGAKLVHWYQQKPGQAPVLVIYDDSDRPSRIPERFSGSNIGNTATLTIEDVEAGDEADYYCQVWDYSSDTMVFGGGTKLTVL
–	–	0.0804	–	–	–	–	0.688	–	–	–	–	–	–	964	0.00043	446000	15.7	6.7e-05	4.27e+06	–	BDG38.118 (antibody, V domains shown, IgG1) VH: QMQLVESGGGVVQPGRSLRLSCAASGFEFRTYGMHWVRQAPGKGLEWVGVIWYDGSATHYADSVKGRFTITRDNSKNTLNLQMNSLRVEDTAVYYCVRAPQWYLTAEAFDLWGQGTMVTVSS VL: SYILTQPPSVSVAPGETATITCGGNLIGARLVHWYQQKPGQAPVLVIYDDSDRPSRIPERFSGSNIGNTATLTISDVEEGDEADYYCQVWDYSSDHYVFGGGTKLTVL
–	–	0.044	–	–	–	–	0.143	–	–	–	–	–	–	991	0.000427	431000	8.47	5.01e-05	5.91e+06	–	BDG38.127 (antibody, V domains shown, IgG1) VH: QMQLVESGGGVVQPGRSLTLSCAASGFEFRTYGMHWVRQAPGKGLEWVGVIWYDGSATHYADSVKGRFTITRDNSKNTLNLQMNSLRAEDTAVYYCARAPQWYLTAEAFDLWGQGTMVTVSS VL: SYILTQPPSVSVAPGETATITCGGNLIGAKLVHWYQQKPGQAPVLVIYDDSDRPSRIPERFSGSNIGNTATLTISDVEAGDEADYYCQVWDYYSDTYVFGGGTKLTVL
5380	14.9	0.0523	–	–	–	–	0.0048	0.0492	7.62e-08	1.55e+06	102	0.00309	3.02e+07	9.07	3.86e-05	4.25e+06	32.1	0.000176	5.49e+06	–	BDG38.128 (antibody, V domains shown, IgG1) VH: QMQLVESGGGVVQPGRSLTLSCAASGFEFRTYGMHWVRQAPGKGLEWVAVIWDDGSNTHYADSVKGRFTITRDNSKNTLNLQMNSLRVEDTAVYYCVRAPQWYLTAEAFDLWGQGTMVTVSS VL: SYILTQPPSVSVAPGETATITCGGNLIGAKLVHWYQQKPGQAPVLVIYDDSDRPSRIPERFSGSNSGNTATLTISDVEEGDEADYYCQVWDYYADTMVFGGGTKLTVL
5490	29	0.0725	–	–	–	–	0.676	14.1	5.27e-05	3.75e+06	23.1	0.0014	6.05e+07	22.6	9.12e-05	4.03e+06	16.7	0.000116	6.96e+06	–	BDG38.129 (antibody, V domains shown, IgG1) VH: QMQLVESGGGVVQPGRSLTLSCAASGFEFRTYGMHWVRQAPGKGLEWVGVIWDDGSNTHYADSVKGRFTITRDNSKNTLNLQMNSLRVEDTAVYYCARAPQWYLTAEAFDLWGQGTMVTVSS VL: SYILTQPPSVSVAPGQTATITCGGNLIGAKLVHWYQQKPGQAPVLVIYDDSDRPSRIPERFSGSNIGNTATLTISDVEEGDEADYYCQVWDYSSDHMVFGGGTKLTVL
